Tests used:
[1] = test system: Staphylococcus. aureus; assay: Lab trials 2b (in vitro) for synergy, components added on top of the culture; type: cell-based
Text: b) Lab trials 2b (in vitro) for synergy.

[2] = test system: Staphylococcus. aureus; assay: Lab trials 2a (in vitro) for synergy, components added in wells for diffusion; type: cell-based
Text: a) Lab trials 2a (in vitro) for synergy.

B1: Serratiopeptidase (protein, UniProt P07268 17-487, looked up)
Serralysin: AATTGYDAVDDLLHYHERGNGIQINGKDSFSNEQAGLFITRENQTWNGYKVFGQPVKLTFSFPDYKFSSTNVAGDTGLSKFSAEQQQQAKLSLQSWADVANITFTEVAAGQKANITFGNYSQDRPGHYDYGTQAYAFLPNTIWQGQDLGGQTWYNVNQSNVKHPATEDYGRQTFTHEIGHALGLSHPGDYNAGEGNPTYRDVTYAEDTRQFSLMSYWSETNTGGDNGGHYAAAPLLDDIAAIQHLYGANLSTRTGDTVYGFNSNTGRDFLSTTSNSQKVIFAAWDAGGNDTFDFSGYTANQRINLNEKSFSDVGGLKGNVSIAAGVTIENAIGGSGNDVIVGNAANNVLKGGAGNDVLFGGGGADELWGGAGKDIFVFSAASDSAPGASDWIRDFQKGIDKIDLSFFNKEAQSSDFIHFVDHFSGAAGEALLSYNASNNVTDLSVNIGGHQAPDFLVKIVGQVDVATDFIV
notes: proteolytic enzyme isolated from the non-pathogenic Enterobacteria Serratia E15, CAS 37312-62-2
[1]
  Inhibition zone In diameter cm for Staphylococcus. aureus: 0.61 cm
[2]
  Inhibition zone diameter In cm for Staphylococcus. aureus: 0.5 cm

From patent US20090317364A1, “NOVEL COMPOSITIONS FOR PREVENTION AND TREATMENT OF MASTITIS AND METRITIS” (priority 2006, published 2009)
